Assay results published in patent US8431396B2, “Anti-angiogenic peptides” (The Cleveland Clinic Foundation, priority 2003, dated 2013).

Experiments:
VEGFR-2 (KDR) = molecular target: T1, VEGFR-2 (KDR) (Homo sapiens, UniProt P35968); experiment: [125I]VEGF binding in transfected PAEKDR cell lines; settings: PAEKDR cells expressing WT-TIMP3
T1 construct: To determine whether these receptor isoforms represent full-length VEGFR-2; expressed in transfected cells; host or cells: porcine aortic endothelial (PAE) cells
Procedure: PAEKDR cells were transfected with TIMP3 cDNA or empty vector using Lipofectamine reagent (Gibco-BRL Rockville, Md.). Stable clones were isolated using Hygromycin selection.
After washing, the cell monolayers were solubilized with lysis buffer (20 mM Tris HCl pH 7.5, 1% triton X 100 and 10% glycerol), and the radioactivity measured in a gamma counter.

endothelial cells = experiment: DNA synthesis ([3H]thymidine uptake) of endothelial cells in response to VEGF165; format: cell-based; settings: TIMP3 at 1 μg/ml and 10 μg/ml
Procedure: (A) Proliferative response of PAE-KDR cells to VEGF165 (5 ng/ml; left) and VEGF121 (30 ng/ml; right). […] (C) DNA synthesis of endothelial cells in response to VEGF165. […] [3H]thymidine incorporation was measured during the last 5 h of incubation. (D) Analysis of endothelial cell expressing TIMP3. […] Expression of TIMP3 protein was determined by immunoblotting with antibody against TIMP3 (top left). MMP-inhibitory activity was determined by reverse zymography (top right). Corresponding densito-metric quantitation is expressed as arbitrary optical density (OD) units±s.d. (C) DNA synthesis in adenovirus-infected cells in response to VEGF. […] In all proliferation experiments, total number of cells was counted at 48 h. Proliferating cell number is expressed as means±s.e.m. of quadruplicate samples. DNA synthesis data represent the means±s.e.m. of triplicate samples; similar results were obtained in at least 2 different experiments. *, P<0.01.
A modified Boyden chamber assay for migration and proliferation assays were carried out as described.

KDR [1] = molecular target: T2, KDR (Homo sapiens, UniProt P35968); experiment: VEGF165-induced KDR phosphorylation (immunoprecipitation/immunoblot); format: cell-based; settings: 1 μg/ml; PAE-KDR cells
T2 construct: To determine whether these receptor isoforms represent full-length VEGFR-2; expressed in transfected cells; host or cells: porcine aortic endothelial (PAE) cells
Procedure: (§1) PDGF-BB-mediated phosphorylation was examined similarly in PAESPDGFR-β cells (anti-PDGFR-β; top right panel). […] PDGF-BB-mediated phosphorylation of PDGFR-β in PAE-PDGFR-β cells overexpressing TIMP3 (top right). KDR protein or PDGFR-β protein was analyzed by both immunoprecipitation and immunoblotting with antibodies specific for KDR (left) or for PDGFR-β (right; A and B, second panels from top). […] Total protein levels of ERK were determined by immunoblotting with antibodies specific for ERK1/2 (anti-ERK1/2; A and B, bottom).
(§2) Cell fractions, prepared as described earlier, or immunoprecipitates of the lysates with the indicated antibodies, were subjected to SDS-PAGE. Proteins were detected with horseradish peroxidase-conjugated antibodies specific for either rabbit or mouse IgG (Amersham Pharmacia, Piscataway, N.J.) followed by enhanced chemiluminescence.

MMPs = experiment: Reverse zymography of ECM and CM of transfected PAEKDR cells; format: biochemical; settings: PAEKDR cells expressing WT or mutant TIMP3
Procedure: Conditioned medium, cell lysates and ECM fractions from transfected cells were prepared as described previously (Qi et al., 2002). Equal amounts of protein were loaded onto a 12% gel with 1 mg/ml gelatin plus RPE cell-conditioned media, as a source of MMPs, for reverse zymography and processed as described previously (Pavloff et al., 1992).

soluble FLT1-IgG = molecular target: T3, soluble FLT1-IgG (Homo sapiens, UniProt P17948); experiment: Solid-phase binding of [125I]VEGF165 to soluble FLT1-IgG; settings: similar doses as for KDR-IgG
T3 construct: purchased R&D Systems
Procedure: (B) Expression of KDR in the lysate and plasma membrane (PM) of PAE-KDR and PAE-KDR-TIMP3 was analyzed by immunoprecipitation (Ip) and western blot (Ib) analysis with antibody specific for KDR. […] Values are the mean±s.e.m. of triplicate wells.
Soluble KDR-Fc or FLT1-Fc (50 ng) was added to each well. […] After washing, the bound protein was solubilized with 1% SDS and 1 M NaOH and radioactivity measured in a γ-counter.

PAE-FGFR1 cells = experiment: Endothelial cell proliferation in response to bFGF; format: cell-based, porcine; settings: recombinant TIMP3 (1 and 5 μg/ml) or overexpression
ERK1 and ERK2 = ERK1 and ERK2 phosphorylation (immunoblot); format: cell-based; settings: recombinant TIMP3
Procedure: as §1, §2

[2] = tested on: MDA-MB435 human breast carcinoma cells; experiment: Tumors from mice injected with MDA-MB435 cells transfected with TIMP3, von Willebrand factor staining; format: in vivo; settings: von Willebrand factor immunostaining; TIMP3-transfected tumor cells
Text: Brown reaction product depicts endothelial cells lining the vessels.

KDR [3] = molecular target: T2, KDR; experiment: VEGF-stimulated KDR tyrosine phosphorylation in membrane fractions (Western blot); format: cell-based; settings: WT-TIMP3 cells; data not shown
Procedure: 2 day serum free conditioned medium (CM) was collected from subconfluent cells cultured on six-well plates (Costar). In some cases the CM was further concentrated with heparin-agarose gels (Bio-rad). The cell monolayer was dislodged from the culture plates following a 10 min incubation in Ca2+, Mg2+ free phosphate buffered saline (PBS) containing 2.5 mM EDTA. After several rinses in PBS and water, the ECM was scraped in a small volume of electrophoresis sample buffer without reducing agent for analyses. Plasma membrane (PM) fractions were prepared from cells centrifuged at 500 g and 4° C. for 5 min The supernatant was discarded and the cell pellets were resuspended in PBS containing protease inhibitors, lysed with a 26-gauge syringe needle, and centrifuged at 3,000 g at 4° C. for 15 minutes. The supernatant was centrifuged at […] at 4° C. for 1 hr. The PM pellets were suspended in lysis buffer containing protease inhibitors. In some instances the membrane fraction of cells was prepared using ProteoExtract Subcellular Proteome Extaction Kit (EMD Biosciences, Inc).
Cell fractions or immunoprecipitates of the lysates with the indicated antibodies were subjected to SDS-PAGE. Proteins were detected with either a HRP-conjugated anti-rabbit or anti mouse IgG antibody (Amersham Pharmacia Biotech., Piscataway, N.J.) followed by ECL. […]

PAE-PDGFR-β cells = experiment: Endothelial cell proliferation in response to PDGF-BB; format: cell-based, porcine; settings: recombinant TIMP3 (1 and 5 μg/ml) or overexpression
PAEKDR cells = experiment: VEGF-stimulated proliferation ([3H]thymidine) of transfected PAEKDR cells; format: cell-based, porcine; settings: VEGF 15 ng/ml
Procedure: Cells were seeded at a density of 5000 cells/well in 24 well culture plates and cultured for 24 h in growth medium. […] High molecular weight DNA was precipitated using 5% trichloroacetic acid at 4° C. for 30 min After two washes with ice-cold H2O, 3H radioactivity was solubilized in 1 N NaOH for 20 min at room temperature, acidified by addition of 2 N HCl, and measured using a liquid scintillation counter. Each sample was assayed in triplicate and the assays were repeated at least twice.

T2 sequence (P35968 20-1356): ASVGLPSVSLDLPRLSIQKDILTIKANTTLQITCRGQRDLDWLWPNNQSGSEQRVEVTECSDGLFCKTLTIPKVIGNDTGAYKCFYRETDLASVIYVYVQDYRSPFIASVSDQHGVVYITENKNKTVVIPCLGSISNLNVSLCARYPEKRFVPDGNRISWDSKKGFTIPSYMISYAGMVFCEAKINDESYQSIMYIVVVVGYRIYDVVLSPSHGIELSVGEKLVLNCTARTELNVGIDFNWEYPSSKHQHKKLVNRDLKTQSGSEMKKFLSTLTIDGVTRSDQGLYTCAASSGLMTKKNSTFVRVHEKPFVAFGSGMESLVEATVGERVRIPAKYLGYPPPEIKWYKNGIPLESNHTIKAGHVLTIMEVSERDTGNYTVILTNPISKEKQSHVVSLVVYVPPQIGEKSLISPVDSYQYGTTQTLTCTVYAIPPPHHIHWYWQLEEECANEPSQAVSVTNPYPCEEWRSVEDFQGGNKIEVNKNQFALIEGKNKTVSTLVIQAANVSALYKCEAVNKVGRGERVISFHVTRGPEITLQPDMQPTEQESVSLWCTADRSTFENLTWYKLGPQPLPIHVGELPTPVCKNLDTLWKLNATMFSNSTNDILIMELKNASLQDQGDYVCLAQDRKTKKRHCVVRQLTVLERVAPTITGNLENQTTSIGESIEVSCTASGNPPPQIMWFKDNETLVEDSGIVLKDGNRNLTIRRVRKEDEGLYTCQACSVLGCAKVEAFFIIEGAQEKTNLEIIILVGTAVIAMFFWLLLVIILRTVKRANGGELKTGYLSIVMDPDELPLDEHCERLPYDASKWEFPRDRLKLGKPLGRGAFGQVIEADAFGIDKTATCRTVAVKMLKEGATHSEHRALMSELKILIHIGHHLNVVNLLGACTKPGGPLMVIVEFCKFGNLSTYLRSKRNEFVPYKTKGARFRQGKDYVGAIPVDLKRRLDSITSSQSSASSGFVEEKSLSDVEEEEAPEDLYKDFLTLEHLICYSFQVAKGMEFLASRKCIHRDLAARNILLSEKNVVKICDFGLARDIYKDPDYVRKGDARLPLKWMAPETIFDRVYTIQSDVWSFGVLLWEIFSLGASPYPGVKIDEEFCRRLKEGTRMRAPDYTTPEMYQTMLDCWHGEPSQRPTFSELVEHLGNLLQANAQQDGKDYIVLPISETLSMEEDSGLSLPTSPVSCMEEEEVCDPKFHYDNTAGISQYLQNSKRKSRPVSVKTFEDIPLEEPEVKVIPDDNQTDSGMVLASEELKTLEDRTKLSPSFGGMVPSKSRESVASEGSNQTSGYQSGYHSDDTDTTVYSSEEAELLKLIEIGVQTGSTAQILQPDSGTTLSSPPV
T1 sequence (P35968 20-1356): as above
T3 sequence (P17948 27-758 limits assumed): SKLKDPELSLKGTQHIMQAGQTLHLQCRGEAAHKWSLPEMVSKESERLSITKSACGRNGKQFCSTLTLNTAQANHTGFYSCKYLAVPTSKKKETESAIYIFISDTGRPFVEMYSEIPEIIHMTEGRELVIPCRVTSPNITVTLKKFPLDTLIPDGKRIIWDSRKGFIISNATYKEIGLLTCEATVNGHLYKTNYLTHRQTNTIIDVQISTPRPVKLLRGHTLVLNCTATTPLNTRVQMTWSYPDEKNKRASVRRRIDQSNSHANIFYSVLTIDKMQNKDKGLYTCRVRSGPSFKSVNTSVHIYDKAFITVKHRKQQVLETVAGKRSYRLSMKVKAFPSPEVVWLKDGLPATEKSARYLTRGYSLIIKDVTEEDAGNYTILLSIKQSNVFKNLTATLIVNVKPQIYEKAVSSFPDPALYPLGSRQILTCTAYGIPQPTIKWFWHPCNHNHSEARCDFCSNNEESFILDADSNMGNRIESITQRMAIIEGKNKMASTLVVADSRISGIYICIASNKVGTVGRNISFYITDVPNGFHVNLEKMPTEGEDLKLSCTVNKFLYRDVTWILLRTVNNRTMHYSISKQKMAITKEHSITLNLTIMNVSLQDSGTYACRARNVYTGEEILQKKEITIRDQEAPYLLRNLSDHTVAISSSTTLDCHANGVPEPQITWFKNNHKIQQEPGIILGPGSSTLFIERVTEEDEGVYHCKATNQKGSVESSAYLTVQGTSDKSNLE

B1: TIMP3: tissue inhibitor of metalloproteinases-3; recombinant human form expressed in NSO myeloma cells, or wild-type expressed in transfected cells (protein, listed as Homo sapiens)
chain: MTPWLGLIVLLGSWSLGDWGAEACTCSPSHPQDAFCNSDIVIRAKVVGKKLVKEGPFGTLVYTIKQMKMYRGFTKMPHVQYIHTEASESLCGLKLEVNKYQYLLTGRVYDGKMYTGLCNFVERWDQLTLSQRKGLNYRYHLGCNCKIKSCYYLPCFVTSKNECLWTDMLSNFGYPGYQSKHYACIRQKGGYCSWYRGWAPPDKSIINATDP
VEGFR-2 (KDR)
  effect on binding of [125I] VEGF to KDR: dramatically inhibited the binding
Endothelial cells
  inhibition of DNA synthesis in response to VEGF165 ([3H]thymidine uptake): could also inhibit DNA synthesis
KDR [1]
  inhibition of VEGF165-induced phosphorylation of KDR: strongly inhibited
MMPs
  MMP inhibitory activity in ECM and CM (reverse zymography): marked MMP inhibitory species
Soluble FLT1-IgG
  inhibition of [125I]VEGF binding to soluble FLT1-IgG: could not inhibit
PAE-FGFR1 cells
  effect on proliferative response to basic fibroblast growth factor (bFGF): Neither recombinant TIMP3 nor TIMP3 overexpression affected the proliferative response
ERK1 and ERK2
  downstream phosphorylation of ERK1 and ERK2 in response to VEGF: inhibited in response to VEGF
[2]
  neovascularization of tumors expressing TIMP3 vs control tumors: decrease in neovascularization
KDR [3]
  receptor autophosphorylation after VEGF stimulation: no receptor autophosphorylation was seen
PAE-PDGFR-β cells
  effect on proliferative response to PDGF-BB: Neither recombinant TIMP3 nor TIMP3 overexpression affected the proliferative response
PAEKDR cells
  VEGF-stimulated proliferation of cells expressing TIMP3 variant: dramatic attenuation in the VEGF response
